The record followed here is publication PMC4359790.

In the assay the target is bovine fetuin (bovine) (UniProt P12763). Put plainly: Corning Epic label-free (resonant waveguide grating, Enspire reader).
On to “recombinant hemagglutinin (rHA) of A/Brisbane/59/2007 (H1N1) (natural protein; modification not given)”, for which the response (change in wavelength) at 20 μg/ml rHA was determined as 80 pm. In turn, “recombinant hemagglutinin (rHA) of B/Brisbane/60/2008 (natural protein)” registered a response (change in wavelength) at 20 μg/ml rHA of 140 pm. “recombinant hemagglutinin (rHA) of A/Hangzhou/3/2013 (H7N9) (natural protein)” showed a response (change in wavelength) at 20 μg/ml rHA of 80 pm.
